Among the data in the supplement of paper PMC10567573 are protein stability index values, retold here.

The labels stand for the following.
B1: PDLIM4 (parent)
chain: FLDERLYCESHAKARVKPPEGYDV
B2: ATL3 (parent)
chain: FSFRYQQELEEEIKELYENFCKHN
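Also: lentivirally expressed fusions sorted by FACS into six bins by GFP to DsRed ratio, PSI derived from sequencing read proportions per bin multiplied by bin number.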

The variants in one series derive from B1. As to the kind of experiment: protein stability index of a GFP-peptide fusion (GPS, HEK-293T) (PSI 1-6); higher = more stable. To be noted: c terminus: a fixed tail appended.
On to FLDERKYCESHAKARVKPPEGYDV [L6K], for which the protein stability index was 2.09.

FLDERHYCESHAKARVKPPEGYDV [L6H]: the protein stability index worked out at 1.72.

On to FLDERLYCESHAKARQKPPEGYDV [V16Q], for which the protein stability index stood at 1.22.

Turning to FLDERLYNESHAKARVKPPEGYDV [C8N], the protein stability index is 2.59.

As to FLDERLYCESHAKARVRPPEGYDV [K17R], the protein stability index came to 1.87.

As for FLDERLYCESHAKARVKPPRGYDV [E20R], the protein stability index was 2.7.

With FLDERLYCESHAKARVKPPYGYDV [E20Y], the protein stability index was determined as 2.28.

On to FLDERLYCESHAKARVKPPENYDV [G21N], for which the protein stability index came out at 2.4.

For FLDERLYCESHAKERVKPPEGYDV [A14E], the protein stability index stood at 1.31.

Consider FLDERLYCESHAKARVKPNEGYDV [P19N], for which the protein stability index is 1.21.

As to FLDERLYCESHAKARVKPHEGYDV [P19H], the protein stability index was found to be 1.72.

As to FLDERLYCESHAKATVKPPEGYDV [R15T], the protein stability index was found to be 1.67.

For the variant FLDERLYCESHEKARVKPPEGYDV [A12E], the protein stability index is 1.47.

Turning to FLDERLYCESHAGARVKPPEGYDV [K13G], the protein stability index amounted to 1.72.

For the variant FLDERLYCESHAIARVKPPEGYDV [K13I], the protein stability index was found to be 2.71.

Consider FLDERLYCESHAMARVKPPEGYDV [K13M], for which the protein stability index is 2.85.

As for FLDERLYCEDHAKARVKPPEGYDV [S10D], the protein stability index was found to be 2.01.

As for FLDERLYCEIHAKARVKPPEGYDV [S10I], the protein stability index was found to be 2.17.

Turning to FYDERLYCESHAKARVKPPEGYDV [L2Y], the protein stability index turned out to be 3.53.

For the variant FLDERLYCESHAKARVKYPEGYDV [P18Y], the protein stability index stood at 2.46.

With FLDERLYCESHAKARVKPPEGYPV [D23P], the protein stability index amounted to 2.3.

As for FLDERLYCESHAKARVKPPEGYCV [D23C], the protein stability index came to 1.65.

As for FLDERLYCESHAKARVKPPEGIDV [Y22I], the protein stability index was 3.

FLDERLYCESHAKARVKPPEGQDV [Y22Q]: the protein stability index is 2.55.

For the variant FLDERLYCESHAKARVKPPEGEDV [Y22E], the protein stability index was found to be 2.43.

For the variant FLDERLYCESHAKARVKPPEGYDL [V24L], the protein stability index worked out at 1.03.

For the variant FLDERLGCESHAKARVKPPEGYDV [Y7G], the protein stability index stood at 2.04.

Take FLDERLQCESHAKARVKPPEGYDV [Y7Q]: the protein stability index was 4.26.

Variants of B2 are the subject of a further series. The description is as above. To be noted: c terminus: a fixed tail appended.
In the case of FSFRYQQELEEEIKESYENFCKHN [L16S], the protein stability index was 2.79.

Take FSFRYQQELEEEIKEKYENFCKHN [L16K]: the protein stability index was 3.02.

On to FSFRYQQELEEEIKEPYENFCKHN [L16P], for which the protein stability index was 3.

On to FSFRYQQELEEEIKEMYENFCKHN [L16M], for which the protein stability index came out at 3.39.

For the variant FSFRYQQELEEEIKERYENFCKHN [L16R], the protein stability index amounted to 2.71.

On to FSFRYQQELEEEIKEVYENFCKHN [L16V], for which the protein stability index was determined as 2.28.

With FSFRYQQELEEEIKEQYENFCKHN [L16Q], the protein stability index was 4.14.

Take FSFRYQQELEEEIKENYENFCKHN [L16N]: the protein stability index is 2.86.

Regarding FSFRYQQELEEEIKEWYENFCKHN [L16W], the protein stability index came out at 2.03.

With FSFRYQQELEEEIKETYENFCKHN [L16T], the protein stability index came to 2.5.

With FSFRYQQELEEEIKEYYENFCKHN [L16Y], the protein stability index came to 2.13.

In the case of FSFRYQQELEEEIKELYENFCKHV [N24V], the protein stability index was found to be 3.5.

As to FSFRYQQELEEEIKELYENFCKHY [N24Y], the protein stability index was determined as 2.61.

In the case of FSFRYQQELEEEIKELYENFCKHK [N24K], the protein stability index is 2.48.

Regarding FSFRYQQELEEEIKELYENFCKHC [N24C], the protein stability index was found to be 2.77.

As to FSFRYQQELEEEIKELYENFCKHL [N24L], the protein stability index is 2.64.

With FSFRYQQELEEEIKELYENFCKHF [N24F], the protein stability index worked out at 3.38.

With FSFRYQQELEEEIKELYENFCKHS [N24S], the protein stability index worked out at 2.14.

On to FSFRYQQELEEEIKELYENFCKHP [N24P], for which the protein stability index worked out at 1.96.

For the variant FSFRYQQELEEEIKELYENFCKHE [N24E], the protein stability index turned out to be 1.93.

For the variant FSFRYQQELEEEIKELYENFCKHA [N24A], the protein stability index turned out to be 2.37.

As for FSFRYQQELEEEIKELYENFCKHH [N24H], the protein stability index came out at 2.64.

As for FSFRYQQELEEEIKELYENFCKHI [N24I], the protein stability index was 2.82.

Consider FSFRYQQELEEEIKELYENFCKHT [N24T], for which the protein stability index worked out at 3.13.

As to FSFRYQQELEEEIKELYENFCKHW [N24W], the protein stability index turned out to be 2.12.

Turning to FSFRYQQELEEEIKELYENFCKHG [N24G], the protein stability index stood at 2.36.

Regarding FSFRYQQELEEEIKELYENFCKHM [N24M], the protein stability index was found to be 2.49.

Consider FSFRYQQELEEEIKELYENFCKHR [N24R], for which the protein stability index came to 2.42.

Turning to FSFRYQQELEEEIKELYENFCKHD [N24D], the protein stability index came out at 2.49.

Turning to FSFRYQQELEEEIKELYCNFCKHN [E18C], the protein stability index came out at 1.57.

FSFRYQQELEEEIKELYLNFCKHN [E18L]: the protein stability index was determined as 1.55.

For FSFRYQQELEEEIKELYQNFCKHN [E18Q], the protein stability index came to 1.8.

FSFRYQQELEEEIKELYINFCKHN [E18I]: the protein stability index amounted to 2.28.

FSFRYQQELEEEIKELYHNFCKHN [E18H]: the protein stability index amounted to 1.89.

Consider FSFRYQQELEEEIKELYTNFCKHN [E18T], for which the protein stability index stood at 2.52.

FSFRYQQELEEEIKELYKNFCKHN [E18K]: the protein stability index turned out to be 1.72.

For the variant FSFRYQQELEEEIKELYVNFCKHN [E18V], the protein stability index was 3.55.

In the case of FSFRYQQELEEEIKELYYNFCKHN [E18Y], the protein stability index was determined as 2.15.

As for FSFRYQQELEEEIKELYDNFCKHN [E18D], the protein stability index came to 2.6.

For the variant FSFRYQQELEEEIKELYRNFCKHN [E18R], the protein stability index is 1.96.

On to FSFRYQQELEEEIKELYNNFCKHN [E18N], for which the protein stability index stood at 2.15.

FSFRYQQELEEEIKELYANFCKHN [E18A]: the protein stability index worked out at 2.19.

Turning to FSFRYQQELEEEIKELYSNFCKHN [E18S], the protein stability index is 1.91.

On to FSFRYQQELEEEIKELYPNFCKHN [E18P], for which the protein stability index is 1.77.

With FSFRYQQELEEEIKELYMNFCKHN [E18M], the protein stability index is 2.27.

Regarding FSFRYQQELEEEIKELYWNFCKHN [E18W], the protein stability index came out at 1.34.

As for FSFRYQQELEEEIKELYFNFCKHN [E18F], the protein stability index was found to be 1.21.

As to FSFRYQQELEEEIKELYENFCLHN [K22L], the protein stability index worked out at 2.77.

With FSFRYQQELEEEIKELYENFCVHN [K22V], the protein stability index was determined as 1.99.

Consider FSFRYQQELEEEIKELYENFCSHN [K22S], for which the protein stability index worked out at 2.33.

On to FSFRYQQELEEEIKELYENFCQHN [K22Q], for which the protein stability index worked out at 2.93.

As to FSFRYQQELEEEIKELYENFCNHN [K22N], the protein stability index came out at 2.54.

Take FSFRYQQELEEEIKELYENFCFHN [K22F]: the protein stability index is 2.08.

FSFRYQQELEEEIKELYENFCRHN [K22R]: the protein stability index is 2.12.

Regarding FSFRYQQELEEEIKELYENFCPHN [K22P], the protein stability index came out at 1.97.

As to FSFRYQQELEEEIKELYENFCIHN [K22I], the protein stability index was found to be 2.23.

Take FSFRYQQELEEEIKELYENFCTHN [K22T]: the protein stability index came to 3.02.

FSFRYQQELEEEIKELYENFCCHN [K22C]: the protein stability index worked out at 2.06.

In the case of FSFRYQQELEEEIKELYENFCDHN [K22D], the protein stability index came to 2.42.

Consider FSFRYQQELEEEIKELYENFCWHN [K22W], for which the protein stability index stood at 1.35.

With FSFRYQQELEEEIKELYENFCYHN [K22Y], the protein stability index was 2.01.

For FSFRYQQELEEEIKELYENFCEHN [K22E], the protein stability index came out at 2.41.

Take FSFRYQQELEEEIKELYENFCAHN [K22A]: the protein stability index was determined as 2.45.

On to FSFRYQQELEEEIKELYENFCMHN [K22M], for which the protein stability index was determined as 2.24.

With FSFRYQQELEEEIKELYENFCHHN [K22H], the protein stability index worked out at 2.04.

As to FSFRYQQELEEEIKELYENFCGHN [K22G], the protein stability index was determined as 2.58.
